Results reported in article PMC4131202 (Current biology : CB, 2013).

Biological target: muscle actin filaments (UniProt P68135 1-377)
Assay: co-sedimentation

Kd: 2900 nM
B1: GST-Pan1(1633-1794), C-terminal fragment of fission yeast Pan1p including the A, PP and W domains (domain or fragment)
chain: PPAPSPLQPSGHDSDNWSQHGDEEEEDSEDDIRSSKDAAALAAKLFGGMAPAHPVSTPPVRPQSAAPPQMSAPTPPPPPMSVPPPPSAPPMPAGPPSAPPPPLPASSAPSVPNPGDRSALLQQIHTGTRLKKTVTTDKSKPIAGRVLDASDGNSSAWYGNLS
